This is an account of results in patent publication US12662540B2, “Compositions and methods for inhibition of MICA/B shedding” (DANA-FARBER CANCER INSTITUTE, INC., priority 2017, dated 2026).

One data set relates to CT26-MICA. The data set is described as follows: CT26 metastasis model. Conditions: antibody days 1, 2, 7, 14; count day 21. The format is in vivo, Balb/c mice. The protocol: Balb/c wild type mice were injected intravenously with 1×10^6 CT26-MICA, and treated with 7C6-mIgG2b or MPC-11 (isotype) administered intraperitoneally on days 1, 2, 7, and 14. Euthanasia was performed on day 21, followed by lung perfusion with 30% Indian ink through the trachea and fixation in Fekete's fixative. That procedure stains the lungs in black, while the metastases remain white, enabling counting of metastases under a stereomicroscope (24).
Balb/c wild type mice were injected intravenously with 1×10^6 CT26-MICA, and treated with 7C6-mIgG2b or MPC-11 (isotype) administered intraperitoneally on days 1, 2, 7, and 14. Euthanasia was performed on day 21, followed by lung perfusion with 30% Indian ink through the trachea and fixation in Fekete's fixative. That procedure stains the lungs in black, while the metastases remain white, enabling counting of metastases under a stereomicroscope.

The next data set has as its system B16F10-MICA cells. In words: B16F10 metastasis model in immunocompetent mice. The class given is in vivo, C57BL/6 mice. Conditions: anti-asGM1, anti-NK1.1 or anti-CD8β. The protocol: The B16F10 cells were transduced with the luciferase-based lentiviral vector to express MICA. B16F10-MICA cells (5×10^5) were injected intravenously into C57BL/6 mice through the tail vein. Fewer tumor cells (4×10^5) were injected into NK cell-deficient mice given that the absence of NK cells results in a very large number of metastases. 7C6 or isotype control antibodies (MPC-11 or C1184, BioXcell, which have mIgG2b and mIgG2a isotypes, respectively) were administered intraperitoneally on days 1, 2, 7 and 10 at a dose of 200 μg per mouse. Antibody blockade and depletion were performed as described previously (24). For antibody-based depletion of CD8 T cells or NK cells, 100 μg per mouse of anti-CD8 (5358, BioXcell), anti-NK1.1 (PK136, BioXcell), and anti-asialo(as)GM1 (Wako Chemicals) were given on days −1, 0, and 7. For antibody blockade, anti-NKG2D (HMG2D, BioXcell) or control IgG (MOPC-21) were given at 200 μg per mouse on days −1, 0, 5, 7 and 10. Blood samples were collected at multiple time points by retro-orbital bleeding under isoflurane anesthesia. Mice were euthanized by CO2 inhalation, lungs were perfused with PBS and fixed in formalin solution, and the number of superficial metastases was counted under a stereomicroscope. Histology was performed by the Rodent Histopathology Core of the Dana-Farber/Harvard Cancer Center using lungs that had not been perfused with PBS.
Macrophages were depleted by intravenous injection of 0.2 ml clodronate liposomes (Encapsula NanoSciences LLC). In the humanized and B16F10-MICA metastasis models, 0.2 ml of clodronate liposomes or control liposomes were injected i.v. (on the same day of tumor cell inoculation and then once weekly).

Data set [1] deals with murine tumor cell lines (B16F10, CT26, Neuro-2a) expressing full-length MICA or MICB. In words: Shed and surface MICA/MICB in murine tumor cell lines transduced with full-length MICA or MICB. The format is cell-based, mouse. The settings on record: B16F10-MICA cells, 24 hours. The source says:
B16F10, CT26, Neuro-2a, EL4 and RMA-S cell lines were transduced with lentiviral vector pHAGE-CMV-fullEF1a. MICA (allele 009) cDNA or other inserts were placed between NotI and BamHI cloning sites, 3′ to the EF1α promoter and 5′ to the IRES. ZsGreen or luciferase cDNAs were cloned 3′ to the IRES as fluorescence or bioluminescence reporters, respectively. The vector with the ZsGreen reporter was used to compare expression of cDNAs encoding full length MICA, full-length MICB and secreted MICA (Neuro-2a, RMA-S and/or B16F10 cell lines). CT26, EL4 and B16F10 cell lines were transduced with the vector that supported expression of the luciferase reporter. […]
Tumor cells (5×10^4 or 1×10^5 per well, depending on the cell line) were cultured for 24 to 72 hours in 96-well plates (flat-bottom plates for adherent cell lines, U-bottom plates for suspension cell lines). […] MICA or control antibodies were added at different concentrations, and shed MICA/B was then detected in supernatants by ELISA using the Human MICA ELISA kit (Ab59569, Abcam) or Human MICB DuoSet ELISA kit (DY1599, R&D Systems), using the procedures recommended by the manufacturers. […]
MICA and MICB were detected on the cell surface by the PE-conjugated anti-MICA/B antibody (clone 6D4, 320906, Biolegend). […] All samples were acquired in a BD LSR Fortessa flow cytometer, and analyzed by FlowJo V10 software.

In the next data set the test system is RMA-S cell lines. In words: 51Cr release assay with murine NK cells against RMA-S cell lines. The class given is cell-based, mouse. The protocol:
Murine NK cells were isolated from the spleen of C57BL/6 Rag1^−/− mice. These cells were enriched by negative selection using a Mouse NK Cell Isolation Kit (130-096-892, Miltenyi Biotech). Cells were then incubated with PE-conjugated anti-NK1.1 and Pacific Blue-conjugated anti-CD3 (Biolegend), and NK cells were sorted using a BD FACS Aria. Purity after sorting was ˜99%. NK cells used for cytotoxicity assays were isolated from mice that had received an intraperitoneal injection of 200 μg Poly(I:C) (InvivoGen) 1 day prior to NK cell isolation.
Target cells were labeled for 1 hour with 100 μCi of ^51[Cr] per 2×10^6 cells in 0.2 ml of media. Subsequently, cells were washed and plated in V-bottom 96-wells plates (5,000 target cells per well). To determine the experimental release, NK cells were added in an equal volume, but at different ratios. […]
For experiments shown in FIGS. 1E, 10, and 13E antibodies were added at the time of the killing assay. […] At the end of the incubation period, plates were centrifuged (2000 rpm, 5 minutes), part of the supernatant was collected, mixed with scintillation fluid, and radioactivity was quantified using a MicroBeta2 reader (Perkin Elmer). Specific killing was calculated using the following formula: 100×(Experimental release−Spontaneous release)/(Maximum release−Spontaneous release).

B1: 7C6-mIgG2b: 7C6 with parental murine IgG2b Fc (antibody)
VH: QIQLVQSGPELKKPGETVKVSCKASGYMFTNYAMNWVKQAPEKGLKWMGWINTHTGDPTYADDFKGRIAFSLETSASTAYLQINNLKNEDTATYFCVRTYGNYAMDYWGQGTSVTVSSAKTTAPSVYPLAPVCGDTTGSSVTLGCLVKGYFPEPVTLTWNSGSLSSGVHTFPAVLQSDLYTLSSSVTVTSS
VL: DIQMTQTTSSLSASLGDRVTISCSASQDISNYLNWYQQKPDGTVKLLIYDTSILHLGVPSRFSGSGSGTDYSLTISNLEPEDIATYYCQQYSKFPRTFGGGTTLEIK
As to B1, the “activity against CT26-MICA lung metastases” value in the data set on CT26-MICA is reported as “has activity against CT26-MICA tumor cells”. Further, the “therapeutic activity against lung metastases after NK cell or CD8 T cell depletion” value in the data set with B16F10-MICA cells is given as “NK cell (anti-asGM1 or anti-NK1.1) but not CD8 T cell (anti-CD8β) depletion abrogated the therapeutic activity”. Moreover, the “ability to inhibit MICA shedding, 7C6 with distinct Fc regions” value in data set [1] is reported as “does not alter the ability of MICA antibody to inhibit MICA shedding”. The “murine NK cell-mediated cytotoxicity against tumor cells expressing full-length MICA” value in the data set on RMA-S cell lines (full-length MICA) is given as “enhances NK cell-mediated cytotoxicity”. In the data set with RMA-S cell lines (secreted MICA), the “murine NK cell-mediated cytotoxicity against tumor cells that release MICA by exocytosis” value is “not against tumor cells that release MICA by exocytosis”.
